Measured values reported in a protein production outcome set (Wang et al. 2014).

experiment: label from the status in PepcDB records
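Note: failed if final PepcDB status was selected cloned or expressed and not failed if soluble or beyond.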

Sequence	protein production
MNIQRETSGHIAAIVTILIWGTTFISTKVLLADFSPMEILFYRFLMGFIALILVRPNMIPFRNWRQELLFAGAGLFGVTLYFLLENIALTYTYASNVGMIVSIIPMITAVLAHFLLEGEKLRLTFLIGFISALIGLLLITFNGNVVLRLNPLGDIMAAGAALVFGGYSIFMKKLSAYEYHIIELTQRVFLYGLLFMVPALFLFDFHFDLSRFSSASNILNMLFLGIGASALCFATWNYSVGVLGAVKSSAYIYMVPVITIAASVLILHENMTWIALLGGALTLLGLYISELKPKAKLLENGCKMDA	failed
MNIRPAATLVLTRDTDNGIEVLLLQRTWEAVFLPGYYVFPGGAVNAQEPEGRAHVVGVEDADISQTMSLDEGGADYMLAAVRECFEEAGILLAQDASGQLIGADHGVHSERMALFQEEISLAQLCAKHGLTVPLDRLAYLSHWVTPPGPPRRFDTRFFVAVAPEGQVASHDGTETIDHVWIAPAQALEEHRAGARLLGLPTIRTLRVLSEFGTTGEMMRYAHANPPEAFPDQPWPAVRKGKPVMLEPNAPAYDEAVKLDPEGEGSTRAEIVPGEPVEVAAGVIRLTAPNPGMMTGPGTNTYILGHERFTVLDPGPANEAHIERILELTGGVVDQVVVTHTHMDHSPAVAQLKARTGCRVFGWPAPEGAGQDQGFTPDDQPGHEDLIVTEAGILKVLHTPGHASNHLCYLLLDQELLFSGDHIMQGSTVVINPPDGDMKAYIDSMYDLLAEPVRFIAPAHGFLMGQPAAVMDYLITHRLSREHKVWRALEALAPVSLKDLTARAYDDVPAAIHGLAARSALAHLLKLEAEHRAFADDGLWQVVAPD	failed
MNITVNDRECSAQVGDRLLDIARANHSHIGYFCGGNAICQTCYVRVLEGAELLSPMSDAEKAMLSDKLIKEGTRMACQTLIEKPGKITVLSEVEAAKRLTLENPLEHHHHHH	not failed
MNIVVQSVYDNTQEFEIIKKWRENYIGINPANGNDFEYWESIREDCSYSFYFYYEDQLVGGVRLTPLGHGITMGERQLDLLRFISVPLETLEVNRLVIEERARGKKIMYESLQYCFHWDSRNTTHSELIALCLPHMVPLYRQVGATMIHDNLQSKEMPEKEYSLISINLKGL	failed
MNIYDQLQAVEDRYEELGELLSDPDVVSDTKRFMELSREEANSRETVAVYREYKQVVQNIADAQEMIKDASGDPELEEMAKEELKNSKVAKEEYEEKLRFLLLPKDPNDDKNIILEIRGAAGGDEAALFAGDLLNMYQKYAENQGWKFEVMEASANGVGGLKEVVAMVSGQSVYSKLKYESGAHRVQRVPVTESQGRVHTSTATVLVMPEVEEVEYEIDPKDLRVDIYHASGAGGQNVNKVATAVRIIHLPTNIKVEMQEERTQQKNRDKAMKIIRARVADHFAQIAQDEQDAERKSTVGTGDRSERIRTYNFPQNRVTDHRIGLTLQKLDSILSGKLDEVIDALILYDQTQKLEELNK	not failed
MNKEVDLSVSCLGKVKELKYDVIILPWGATEPHNLHLPYLTDCILPHDIAVEAAELALSRSGVRCMVMPPVPFGAHNPGQRELPFCIHTRYATQQAILEDIVSSLHVQGFRKLLILSGHGGNNFKGMIRDLAFEYPDFLIAAANWFEVVSPKGYFEAEIDDHAGESETSVMMHYHPELVNLAEAGDGESKPFAIASLNEKVAWVPRHWDKATVDSGVGNPKKATAEKGERYVKPIVEKLAGLFEEMAQHDLYE	not failed
MNKGNTLDSIPTDLILEIFSRLSAKSVGRLRCLSKLWRKGEWFFFSSLQPQNLYEKPFLVVAADFHMKFSEDMSHDIYSYASGLIYFPKMLIENEKSGAIRVICNPITGQYAILPKLITLQAARSFLGFDPIDNQFKVLLVNNDIVNNDMDILTLGIGELMSEKLKFIEAKCFFALDDVQLINYKGKLGGISWNNHEVAPVELSMWVLEDVEKQEWSKNVYILPKNVVPNNWLHAAGVTVEGDIVFSEAVVSNPFDVFYFNPEKNTLQHVETHCNHEVFDDENLVNIFVDHVEDLKFDVMKPTYAATSIRPTEQKHKPTSTETSMSRKDHQVRTIDQPQQDRCTFESINNKFDVMCLLDDD	not failed
MNKKSLLAAVLFAAVMPVSFAQNANVKGAESLSGGSKPNFPEARTLIGEAMKNPETMNDAKTWFVAGQVEERLFTSENLKQTVNQEPDRAMMNDALLRILPFYLKADQLDNMPDQKGKVKPKFTKKIMESLKGNHLYYINAGGYYMEKKDYKKALEAFDQFMQIKELPMFAAVPEISAQDSNSMMVGFFSAVCAYQANDLDRTLEICNKIKDVPYRQNDVYQLIATVYQDKKDTEGYIRMLEEGVQKFPKEAYYLLNLINKYIETGRTEEAISSLERAIADDPQNVQLYDVMAKLYENTQDYDKAEEWLKKGLALDPDNASVCYDLGRVYYNRAADLKGADQVNAETEAKAKEYLQKALPLLEKAYSINPDESWYVLRNVYYNLKMNDKYKELTERHEGK	failed
MNKLEERSQHRKSRFRFLVISTFWRVLLLLKNDAEPLFHLGNIHYAYGHKASAMNYWKEAVSKNREHEKAWHNLVQCAVIQEEWEQAAEGLTILCRNHPTRFEYMSLYTHALKKLGKKEELEEWYLSHINGPHHEWAIEGLGMLYIRTRREIDAFKLLSPFVRKFPNRPVGLKILGISSIRTNQYEAGLTFLEKSLELKEDKEVKSLVDRVKRLKKVRGGNR	failed
MNKLSEKNTTRLASLDILRGFDLFLLVFFQPVFAALVRQLNLPFLNDILYQFDHEVWEGFRFWDLVMPLFLFMTGASMPFSLSKYVGMSGSYWLVYRRILRRVFLLFIFGMIVQGNLLGLDSSHIYLYSNTLQSIAVGYLIAAVIQLHFSFRWQIGITLLLLFIYWIPMTFLGDFTPAGNFAEQVDRCVLGRFRDGVFWNEDGTWSFSPYYNYTWIWSSLTFGVTVMLGAFAGKIMKEGKANRKKVVQTLSVIGVLLVGLAMLWSLQMPIIKRLWTGSMTLLSGGYCFLLMALFYYWIDYKGHSRGLNWLKVYGMNSITAYLLGEVVNFRCIADSVSYGLKQYIGDYYPVWLTFANYLILFFLLRMMYKRGLFLKV	failed
MNKLSIIITYFNNEDYISECIHSLKSQRNQDFDIIVVDDGSTDRSTEILQEALKSYDKDVHFIQLQENTGHAHARNVALEQAHGQYVLFLDADDQLASYAVDYYLQHVNGLDTLIAPIHKFRSQRPQYVDKDKVRLQYASHQKSPNAILRKESACNILFKNAIIKAHQIQFNESLDIYADTSFVLEYLKYAERFVRITNFPFYYRGEVYDPFYGNTLSDQDFTNKFEDHVNSFFDAMQRTNDKRIKNFLIQRMKNEIKSGFDPALRDIKSRYVSLEDALIKIVKALKWNILKDGKVLYNLEILFLSMDDVENAKYVNDLRNKTRLVKNIVLNSKMKERSKYQLSDNEDLVDPNTIVFEAFGGKNYSDSPKYIYEYMQKHYPHLNYIWVFSKPENNNIPGNATKVKKGSQAYYDAYAKAKYWVTNARLPLYLNKKENQMYIQTWHGTPLKRLANDMKVVRMPGTTTANYKKNFYAEASRWDRLVSPNRYSSDIFKSAFWMDEDRIWEIGYPRNDVLVNRQNDTEYIEQIKRDLNLPADKKVIMYAPTWRDDEFVKKGQYLFDLKINLANLQKEIGDEYVILLRMHYLIANALDLHGYDDFAIDVSNYNDISELYLISDALVTDYSSVMFDFGILKRPQFFFAYDIEKYDKGLRGFYMDYMNDLPGEIITDEFKLAEELKQIDQHKVKYQDKIESFYNDFCSIENGKASQYIGDYIYKDIEKKS	failed
MNKMLYGWLLAACCGLPPAFAGDSVDVLAQPALHGPQALRAVLQDVARADARLVAVGERGVVLLSDDNGATWRQATAVPVGVSLTAVQFIDARNGWAVGHAGVVLHSQDGGEHWSVQLDGKRAAALEVQAAEAAADERRLAAAQRLLADGADKPLLALNFTDARNGLVVGAYGVAMRTDDGGRSWQSEIGRLPNGRGLHLYALARQGNQVYIAGEQGLLLRSRDGGEHYEALHGPYDGSYFAATVLPDGRLLLGGLRGSLFASDDGGDSFQALANPTPASINGLRVAGGQLLLANQAGMLLRSGLGAFAAQPVAVSDGLPLTAATTAADGSIVAVGMAGARRLEPSSLSTTTD	failed
MNKPATIDFATATAIQIPAATAQAEALHDLVPGEARDSLLAVHDVLRRELPQGRLAIYEAGGGSCSVLPPELLSRSQVTVVDIDEDQVRNNTYADEAIRGDVQTYRFGGETFDLVICYNVIEHLPNVDAALLNFRDALKRGGMILIGAPNPRSLSGVVTKYSPHWFHVWFYRHIRGIRDAGLPGEPPFPTFFHPLVTLPRLEAFAAANGLDMTYRREVESPRYPEMRRRKPLFAALVDAGAAMLNAVLPRGTDVRRGDYHVILRKS	failed
MNKPYFIAFLLSLALWTVIPSVFAGDVVLKVFEGKPRINSPHITGNYPSTPFIFYIPTSGQRPMQWSAEKLPEGLELDSKTGIISGVMTSKGDYTVTLKAENALGVSVKQLVIRIGDELLLTPPMGWNSWNTFGQHLTEELVLQTADAMITNGMRDLGYSYINIDDFWQLPERGADGHLQIDKTKFPRGIKYVADYLHERGFKLGIYSDAAEKTCGGVCGSYGYEETDAKDFASWGVDLLKYDYCNAPVDRVEAMERYAKMGRALRATNRSIVYSVCEWGQREPWKWAKQVGGHLWRVSGDIGDIWYRDGNRVGGLHGILNILEINAPLSEYAGPSGWNDPDMLVVGIDGKSMSIGYESEGCTQEQYKSHFSLWCMMASPLLSGNDVRNMNDSTLKILLDPDLIAINQDVLGRQAERSIRSDHYDIWVKPLADGCKAVACFNRASSPQTVILNENTIADLSFEQIYCLDSHLTKSGSDSKELIVKLAPYQCKVYILGKTDLEHHHHHH	failed
MNKRNWTAYYNSTKQNTLPRKSLLKAIANFDKEKINLSKSAIDLGCGAGIDVMELLRCGWSVIAIDSQLSAIDSLLSSAQELTCANKLKTIISSFEALDSLPKVNLINASFSLPFLKPVYFYKFWSVILKGLKPGGRFSGSFFGFNDFWNTRTDMTFLNREMICHLFSQFKIEYFQEEEKDEMDALGYYKHWHKFFIVAKKIALEHHHHHH	failed
MNKRPARPTRSRRRISVAPATRQLRNARQMMADDIAVARAVERGELETEEHPTHGATNAEKAAESGLQPQPSDHEKAEVATSKHGLPKLTIVLLTVAAAWLGLSFLHELSSVVAPLFFGLNLLITAYPIHTWLVKHKCPRWISATTAGTAVIVVLAAGVVGMVWSVAAMINQLQSYIPQMEKIYTQLLHWSTQLGYSQDVIADKLKKIDPQQVMSVVTSVASDTTSVVTMIIVILTGMIFMVMDTPQMHDRLRMAGSRKPDVVLALESFASGIRKYWLVTTVFGLIVALFDWAALLIIGVPLAGVWALFSFLTNYIPNIGFIIGVIPPALLALFKDGWVAAVAVVVSYSVLNFVIQSIIQPKFAGDAVGLTPTMSFVSLLLWGWVFGALGTLIALPCSLLVKATLIDHDPGARWVNALISSRPTEGLEDNPDE	failed
MNKRPASGTGHSVLRRSTRRQLLGAAAGATAALCGCLDDNGTDRTEPLDVSIGDVATYRYGPQRRGVADTTVPETAPDERWRLNTDWPVRAAPAVVGGVVYHCGNGLAAVDAVDGERLWRVDTDGPSETPPAVADGVVFAGTHRGRLHAINSDGTEHWTASGNGRIDAAPVVVDGRVYTASRATDGEVYAFEAGGREWTHEAVYRVNSPPAVADGLVFVGGWEGAVYGIDADSGERQWRTATDGPVLSSPAVADGRVFAGGNDGVVRALDVADGDERWQVETAATPTAPAVADGSLYVGDADGRLRRLDAATGEEGWQVTVASGIGVPPTVVEGTVVVGTTDGGVVAVDAADGTERWRVDTGERIRSQPVLAAGRVFVGSGRRLLALGK	failed
